For series [1], the system named is mouse fibroblast (NIH3T3). Nature of the series: βig-h3-mediated cell adhesion test, NIH3T3. The format is cell-based. Conditions: for βig-h3-mediated cell adhesion: NIH3T3, βig-h3 5 ug/ml coat. How it is done:
(§1) Human βig-h3 was introduced into a 96-well plate at a concentration of 5 ug/ml, and coated for 14 hours at 4° C. In DMEM+0.5% BSA (Bovine Serum Albumin) culture medium, human fibroblast (NIH3T3) was introduced, and hsdhFas-1 peptide at concentrations was injected thereto, followed by mixing. The resultant mixture was cultured at 37° C. for 30 minutes, and plated on a coated well. It was cultured for 2 hours, and washed with PBS (phosphate buffered saline) so as to remove unattached cells, and then added with a substrate (4-Nitrophenyl N-acetyl-β-D-glucosaminide, Sigma, U.S.) to be activated by β-N-acetylglucosaminidase within the cell, followed by culturing at 37° C. for 1 hour. Then, a glycine EDTA solution (0.5M EDTA, 50 mM glycine, pH 10.4) was added thereto, and the coloring extent according to the number of attached cells was measured by absorbance.
Also, a structurally modified peptide of a fas-1 domain of mouse βig-h3 was synthesized as a recombinant peptide (hereinafter, referred to as ‘mdhFas-1peptide’, see FIG. 2), and a mouse cell line, that is, NIH3T3 cell line, was used to test the inhibiting effect by mdhFas-1 peptide on adhesion and migration of a Synovial membrane cell in the same manner as that in the test using human βig-h3.
as §1, with “βig-h3” for “Human βig-h3”, “mouse” for “human”, “MFK23, MFK24, MFK25 or MFK27” for “hsdhFas-1 peptide”

A further series addresses MMP3 (Homo sapiens, UniProt P08254). Nature of the series: Enzymatic digestion test, MMP3. The format is biochemical. Conditions: 3 ug peptide, MMP3 10, 50, 100 ng, 37° C. 4 hours. How it is done:
3 ug of synthesized mdhFas-1-MMPsubstrate structure modified protein, together with MMP1 (5 ng, 10 ng and 50 ng), MMP2 (100 ng, 200 ng and 800 ng), MMP3 (10 ng, 50 ng and 100 ng), cathepsin D (5 ng, 10 ng and 50 ng), cathepsin L (100 ng, 200 ng and 800 ng), and cathepsin K (10 ng, 50 ng and 100 ng), was mixed with enzyme buffer (150 mM NaCl, 5 mM. CaCl2, 20 mM Tris-HCl pH7.5), and reacted at 37° C. for 4 hours. The resultant product was subjected to electrophoresis through 15% polyacrylamide gel, transferred to a Nitrocellulose Membrane (Schleicher & Schuell), blocked at room temperature for 1 hour with TBST solution containing 3% BSA (20 mmole/L Tris-HCl, 137 mmole//l NaCl, 0.1% Tween-20), washed TBST solution three times (each for 10 minutes), and reacted with primary antibody (anti-Histidine or anti-Bigh3) for 1 hour. The resultant product was washed with TBST solution three times (each for 10 minutes), reacted with a secondary antibody conjugated to horseradish peroxidase (HRP) for 1 hour, washed TBST solution three times (each for 10 minutes), and visualized by ECL (Amersham Biosciences, UK) so as to detect the change in the amount of mdhFas-1-MMPsubstrate-RGD structural peptide.

The subject of series [2] is collagen-induced arthritis (CIA) mouse model. As to the kind of experiment: Arthritis therapeutic effect in CIA mouse (clinical arthritis index). The format is in vivo. How it is done:
A CIA mouse model having the similar characteristic to that of human rheumatoid arthritis was prepared according to the description in a known literature (Protocol for the successful induction of collagen-induced arthritis (CIA) and collagen antibody-induced arthritis (CAIA) in mice. Chondrex, Redmond, Wash.): Bovine type 2 collagen 100 ug was mixed with Freund's complete adjuvant, and hypodermically inoculated into the tail of the mouse. After 3 weeks, bovine type 2 collagen 100 ug was mixed with Freund's incomplete adjuvant, and inoculated again into the tail of the mouse. Then, the mouse was used in the experiment.
In order to find out the therapeutic effect of arthritis in a CIA model, for four weeks from the onset (the 23rd day) of arthritis following the second injection of the bovine type 2 collagen, MFK23 or MFK24 was daily injected into the abdominal cavity in doses of 0.1 mg/kg, 1 mg/kg, 10 mg/kg and 30 mg/kg. As a control group, the same amount of PBS was injected into the abdominal cavity. From the 23rd day to the 50th day, by using a Clinical arthritis index, the severity of arthritis was daily determined. The determination was based on the following data.
0; no symptom, 1; edema in one articulation or light edema, 2; severe edema in 2 or more articulations, 3; severe edema in most articulations, 4; severe edema in the whole of legs.

Series [3] in a line: Toxicity test in CIA mouse (weight, serologic test, blood test). Conditions: for body weight change compared to control group: 22nd day vs 48th day; for overall toxicity: serologic test, blood test, weight; for ALT / AST / BUN / Crea / PLT / RBC / WBC: CIA model, 4 weeks.
Method: On the 48th day, a serologic test and a blood test were carried out.

Positions count from the first letter of the chain named. “Also recorded” adds a separate entry of the source.

Sequence of MMP3 (P08254 100-477, species assumed): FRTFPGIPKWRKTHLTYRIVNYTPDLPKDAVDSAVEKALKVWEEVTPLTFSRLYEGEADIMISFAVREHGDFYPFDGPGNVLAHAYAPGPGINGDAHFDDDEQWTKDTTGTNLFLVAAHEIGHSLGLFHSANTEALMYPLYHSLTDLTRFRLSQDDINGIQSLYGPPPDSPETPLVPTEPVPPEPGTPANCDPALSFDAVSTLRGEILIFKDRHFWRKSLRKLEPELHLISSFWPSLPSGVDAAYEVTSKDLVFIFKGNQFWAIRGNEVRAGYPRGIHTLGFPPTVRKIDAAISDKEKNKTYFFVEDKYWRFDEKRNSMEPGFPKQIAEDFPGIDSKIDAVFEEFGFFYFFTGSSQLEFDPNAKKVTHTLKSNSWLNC

B1: MFK23: fusion peptide having sequential links of mdhFas-1, MMP2 substrate GPLGVRG (SEQ ID NO: 5), and QERGDSLA (SEQ ID NO: 10) (protein)
chain: QAMPPEELNKLLANAKELTNILKYHIGDEILVSGGIGALVRLKSLQGDKLEVSSKNNVVSVNKEPVAETDIMEFGPLGVRGVDGQERGDSLAGLE
modifications: MFK23
B1: the “concentration at which treatment inhibited the adhesion” value in series [1] (NIH3T3, FIG. 14) was ≥ 5 µM. In addition, the βig-h3-mediated cell adhesion entry in series [1] was “even at a very low concentration can inhibit the cell adhesion; also recorded: concentration-dependently inhibited”. Besides, in the series with MMP3, the “cleavage through treatment with MMP-3” value is “not cleaved”. Further, the “arthritis inhibiting effect (clinical arthritis index), in words” value in series [2] (daily into the abdominal cavity) was “excellent effect on arthritis”. Further, in series [3] (CIA mouse), the “death during the therapy period” value was “No mouse died”; the “body weight change compared to control group” value is recorded as “maintained similarly to that of the control group”; the overall toxicity result is “a low toxicity and a low dangerousness”.

B2: MFK24: fusion peptide having sequential links of mdhFas-1, MMP1 substrate GPQGIAG (SEQ ID NO: 6), and QERGDSLA (SEQ ID NO: 10) (protein)
chain: B1 chain with L77Q, V79I, R80A
modifications: MFK24
Turning to B2, the adhesion inhibiting effect in series [1] (NIH3T3, concentration of 0.5uM, FIG. 15C) is on record as ≥ 80%. In series [1], the βig-h3-mediated cell adhesion entry is “even at a very low concentration can inhibit the cell adhesion; also recorded: concentration-dependently inhibited”. The “cleavage through treatment with MMP-3” value in the series with MMP3 is “not cleaved”. For the same molecule, in series [2], the “concentration relative to conventional mdhFas-1 or MFK12 that shows a higher arthritis inhibiting effect” value was 1/100. Moreover, in series [2] (0.1 mg/kg daily into the abdominal cavity, four weeks), the “arthritis inhibition (clinical arthritis index)” value was “about 70%”. In series [3] (0.1 mg/kg), this molecule showed an ALT of 37.8 ± 7.1 U/L, an AST of 224.3 ± 13 U/L, a BUN of 19.0 ± 3.3 mg/dL and a Crea of 0.54 ± 0.10 mg/dL. In addition, in series [3] (0.1 mg/kg), the PLT is on record as 1280.2 ± 284 ×10^3/ul, the RBC is given as 12.3 ± 0.7 ×10^6/ul and the WBC is recorded as 5.0 ± 1.2 ×10^3/ul. In series [3] (1 mg/kg), this molecule had an ALT of 40.6 ± 7.2 U/L, an AST of 270.5 ± 17 U/L, a BUN of 21.2 ± 3.4 mg/dL and a Crea of 0.54 ± 0.14 mg/dL. Besides, in series [3] (1 mg/kg), the PLT is 1155.3 ± 184 ×10^3/ul, the RBC was 10.9 ± 1.7 ×10^6/ul and the WBC was 3.7 ± 0.5 ×10^3/ul. In series [3] (10 mg/kg), this molecule displayed an ALT of 43.6 ± 14.2 U/L, an AST of 222.0 ± 25 U/L, a BUN of 20.4 ± 4.4 mg/dL and a Crea of 0.54 ± 0.11 mg/dL. Also, in series [3] (10 mg/kg), the PLT is given as 1050.1 ± 359 ×10^3/ul, the RBC is listed as 11.4 ± 1.5 ×10^6/ul and the WBC is listed as 5.0 ± 1.8 ×10^3/ul. In series [3] (30 mg/kg), this molecule gave an ALT of 28.9 ± 8.2 U/L, an AST of 286.6 ± 48 U/L, a BUN of 12.4 ± 4.8 mg/dL and a Crea of 0.33 ± 0.02 mg/dL. In series [3] (30 mg/kg), the PLT is listed as 674.7 ± 111 ×10^3/ul, the RBC is on record as 12.4 ± 0.1 ×10^6/ul and the WBC was 6.1 ± 1.1 ×10^3/ul. Moreover, in series [3] (CIA mouse), the “death during the therapy period” value is recorded as “No mouse died”; the “body weight change compared to control group” value is “maintained similarly to that of the control group”; the overall toxicity result was “a low toxicity and a low dangerousness”. For the same molecule, in series [3] (CIA mouse, 48th day), the “bilirubin and creatine compared to control group” value is on record as “no significant difference”; the “erythrocytes, leukocytes, platelets and liver function values (AST and ALT) compared to control” value is on record as “did not show abnormalities”.
